Data on eleven substances can be found in PMC2831313.

Assay [1] deals with HapC with cysteine 74 exchanged to serine (Aspergillus nidulans). In words: SDS-PAGE without reducing agent.
Assay [2] addresses N-biotinylated HapB (Aspergillus nidulans). The assay can be described thus: SPR. (SPR reads the build-up and loss of mass on a sensor chip optically.)
Assay [3] addresses HapC(CCS) (Aspergillus nidulans). In words: SDS-PAGE without reducing agent.
Assay [4] deals with HapC(CSS) (Aspergillus nidulans). In words: SDS-PAGE without reducing agent.
The target in assay [5] is oxidized HapC(CCS) (treated with diamide or H2O2) (Aspergillus nidulans). The assay can be described thus: SDS-PAGE under non-reducing conditions.
The target in assay [6] is HapC(SCS) (Aspergillus nidulans). The assay can be described thus: SDS-PAGE without reducing agent.
For assay [7], the target named is oxidized HapC (treated with diamide or H2O2) (Aspergillus nidulans). The assay can be described thus: SDS-PAGE under non-reducing conditions.
In assay [8] the target is HapC with cysteine 78 exchanged to serine (Aspergillus nidulans). The assay can be described thus: SDS-PAGE without reducing agent.
In assay [9] the target is HapC(SSC) (Aspergillus nidulans). In words: SDS-PAGE without reducing agent.

The stoichiometry N is a count of units in the complex or per binding partner. On to “HapC with cysteine 74 exchanged to serine (natural protein)”, for which, in [1], the stoichiometry N was 2.

Take “heterodimer of HapC with cysteine 78 exchanged to serine and HapE (complex)”: the HapB binding affinity relative to the HapC/HapE heterodimer in assay [2] was 50%. In the case of HapC(CCS) (natural protein), the stoichiometry N in assay [3] stood at 2. The substance HapC(CSS) (natural protein) gave a stoichiometry N in assay [4] of 2. With “oxidized HapC(CCS) (treated with diamide or H2O2) (natural protein)”, the stoichiometry N in [5] was determined as 2. In [6], HapC(SCS) (natural protein) came in with a stoichiometry N of 2.

Take “oxidized HapC (treated with diamide or H2O2) (natural protein)”: the stoichiometry N in [7] was determined as 2. “heterodimer of HapC with cysteine 74 exchanged to serine and HapE (complex)” returned a HapB binding affinity relative to the HapC/HapE heterodimer in assay [2] of 50%. In assay [8], “HapC with cysteine 78 exchanged to serine (natural protein)” showed a stoichiometry N of 2. Turning to HapC(SSC) (natural protein), the stoichiometry N in assay [9] was determined as 2. One may read the Kd as a measure of binding affinity in units of concentration. A lower Kd goes with higher affinity. In assay [2], “heterodimer composed of the HapC(CCS) mutant and HapE (complex)” returned a dissociation constant (Kd) of 36.8 nM.
